Assay results as given in patent US20060067886A1, “Gastrin receptor-avid peptide conjugates” (priority 1997, published 2006).

Experiment: Biodistribution of radiometal-DOTA-BBN conjugates in CF1 normal mice
Conditions: 1 hour post-injection; for tissue uptake dose at 1 h / dose excreted at 1 h / tissue uptake at 1 h: CF-1, mouse, in vivo, iv, total radioactivity; for tissue uptake dose at 1 h / dose excreted at 1 h: Avg % ID; for dose excreted at 1 h: Urine; for tissue uptake at 1 h: Avg % ID/gm

Row | SMILES | Avg % ID, Carcass [% ID] | Avg % ID, L. Intestine [% ID] | Avg % ID, S. Intestine [% ID] | Avg % ID/gm, Blood [% ID/gm] | Avg % ID/gm, Muscle [% ID/gm] | Avg % ID/gm, S. Intestine [% ID/gm] | Avg % ID/gm, Stomach [% ID/gm] | Avg % ID, Blood [% ID] | Avg % ID, Heart [% ID] | Avg % ID, Kidney [% ID] | Avg % ID, Liver [% ID] | Avg % ID, Lung [% ID] | Avg % ID, Muscle [% ID] | Avg % ID, Pancreas [% ID] | Avg % ID, Spleen [% ID] | Avg % ID, Stomach [% ID] | Avg % ID/gm, Heart [% ID/gm] | Avg % ID/gm, L. Intestine [% ID/gm] | Avg % ID/gm, Pancreas [% ID/gm] | Avg % ID/gm, Spleen [% ID/gm] | also measured
1 | CSCC[C@H](NC(=O)[C@H](CC(C)C)NC(=O)[C@H](Cc1cnc[nH]1)NC(=O)CNC(=O)[C@@H](NC(=O)[C@H](C)NC(=O)[C@H](Cc1c[nH]c2ccccc12)NC(=O)[C@H](CCC(N)=O)NC(=O)CN1CCN(CC(=O)O)CCN(CC(=O)O)CCN(CC(=O)O)CC1)C(C)C)C(N)=O [111In-DOTA-0-BBN[7-14]NH2] [metal not drawn] | 1.78 ± 0.37 | 0.10 ± 0.02 | 0.25 ± 0.04 | 0.10 ± 0.03 | 0.03 ± 0.02 | 0.44 ± 0.64 | 0.06 ± 0.03 |  |  |  |  |  |  |  |  |  |  |  |  |  | 
2 | CSCC[C@H](NC(=O)[C@H](CC(C)C)NC(=O)[C@H](Cc1cnc[nH]1)NC(=O)CNC(=O)[C@@H](NC(=O)[C@H](C)NC(=O)[C@H](Cc1c[nH]c2ccccc12)NC(=O)[C@H](CCC(N)=O)NC(=O)CCNC(=O)CN1CCN(CC(=O)O)CCN(CC(=O)O)CCN(CC(=O)O)CC1)C(C)C)C(N)=O [177Lu-DOTA-β-Ala-BBN[7-14]NH2] [metal not drawn] | 2.73 ± 1.08 | 0.36 ± 0.17 | 0.64 ± 0.20 | 0.16 ± 0.17 | 0.94 ± 1.54 | 0.49 ± 0.10 | 0.34 ± 0.18 | 0.24 ± 0.25 | 0.05 ± 0.08 | 0.63 ± 0.14 | 0.21 ± 0.09 | 0.04 ± 0.06 | 0.11 ± 0.18 | 0.32 ± 0.07 | 0.05 ± 0.04 | 0.13 ± 0.09 | 0.43 ± 0.70 | 0.45 ± 0.19 | 1.44 ± 0.26 | 0.31 ± 0.31 | Avg % ID/gm, Kidney: 1.88 ± 0.37 % ID/gm; Avg % ID/gm, Liver: 0.15 ± 0.06 % ID/gm; Avg % ID/gm, Lung: 0.23 ± 0.33 % ID/gm
3 | CSCC[C@H](NC(=O)[C@H](CC(C)C)NC(=O)[C@H](Cc1c[nH]cn1)NC(=O)CNC(=O)[C@@H](NC(=O)[C@H](C)NC(=O)[C@H](Cc1c[nH]c2ccccc12)NC(=O)[C@H](CCC(N)=O)NC(=O)CCCCNC(=O)CN1CCN(CC(=O)O)CCN(CC(=O)O)CCN(CC(=O)O)CC1)C(C)C)C(N)=O [177Lu-DOTA-5-Ava-BBN[7-14]NH2] [metal not drawn] | 2.77 ± 0.75 | 3.52 ± 1.37 | 3.80 ± 1.87 | 0.22 ± 0.19 | 0.67 ± 0.90 | 2.55 ± 1.31 | 1.48 ± 2.25 | 0.35 ± 0.31 | 0.04 ± 0.05 | 0.69 ± 0.33 | 0.14 ± 0.06 | 0.08 ± 0.15 | 0.09 ± 0.12 | 3.78 ± 1.09 | 0.18 ± 0.12 | 0.73 ± 1.33 | 0.34 ± 0.35 | 3.78 ± 1.23 | 16.41 ± 1.38 | 1.26 ± 0.69 | Avg % ID/gm, Kidney: 2.03 ± 1.02 % ID/gm; Avg % ID/gm, Liver: 0.09 ± 0.04 % ID/gm; Avg % ID/gm, Lung: 0.47 ± 0.84 % ID/gm
4 | CSCC[C@H](NC(=O)[C@H](CC(C)C)NC(=O)[C@H](Cc1c[nH]cn1)NC(=O)CNC(=O)[C@@H](NC(=O)[C@H](C)NC(=O)[C@H](Cc1c[nH]c2ccccc12)NC(=O)[C@H](CCC(N)=O)NC(=O)CCCCCCCCCCNC(=O)CN1CCN(CC(=O)O)CCN(CC(=O)O)CCN(CC(=O)O)CC1)C(C)C)C(N)=O [111In-DOTA-11-Aun-BBN[7-14]NH2, metal not drawn] |  |  |  |  |  |  |  |  |  |  |  |  |  |  |  |  |  |  |  |  | tissue uptake dose at 1 h (Blood): 0.79 ± 0.2 %ID; tissue uptake dose at 1 h (Carcass): 7.35 ± 1.57 %ID; tissue uptake dose at 1 h (Kidney): 1.07 ± 0.17 %ID; tissue uptake dose at 1 h (L. Intestine): 5.54 ± 2.42 %ID; tissue uptake dose at 1 h (Liver): 2.44 ± 0.5 %ID; tissue uptake dose at 1 h (Pancreas): 11.6 ± 1.14 %ID; tissue uptake dose at 1 h (S. Intestine): 17.8 ± 1.4 %ID; tissue uptake dose at 1 h (Spleen): 0.19 ± 0.04 %ID; tissue uptake dose at 1 h (Stomach): 0.53 ± 0.11 %ID; dose excreted at 1 h: 53.3 ± 0.9%; tissue uptake at 1 h (L. Intestine): 4.34 ± 1.34 %ID/g; tissue uptake at 1 h (Liver): 1.22 ± 0.25 %ID/g; tissue uptake at 1 h (Pancreas): 26 ± 3.46 %ID/g; tissue uptake at 1 h (S. Intestine): 11.1 ± 2.07 %ID/g; tissue uptake at 1 h (Spleen): 1.15 ± 0.38 %ID/g; tissue uptake at 1 h (Stomach): 1.05 ± 0.25 %ID/g
5 | CSCC[C@H](NC(=O)[C@H](CC(C)C)NC(=O)[C@H](Cc1c[nH]cn1)NC(=O)CNC(=O)[C@@H](NC(=O)[C@H](C)NC(=O)[C@H](Cc1c[nH]c2ccccc12)NC(=O)[C@H](CCC(N)=O)NC(=O)CCCCCCCCCCNC(=O)CN1CCN(CC(=O)O)CCN(CC(=O)O)CCN(CC(=O)O)CC1)C(C)C)C(N)=O [177Lu-DOTA-11-Aun-BBN[7-14]NH2] [metal not drawn] | 6.69 ± 2.48 | 5.03 ± 0.46 | 17.10 ± 3.60 | 0.78 ± 1.10 | 0.75 ± 1.12 | 12.58 ± 1.73 | 1.82 ± 1.12 | 0.47 ± 0.54 | 0.19 ± 0.29 | 1.76 ± 0.25 | 2.26 ± 0.46 | 0.17 ± 0.22 | 0.11 ± 0.18 | 6.89 ± 1.20 | 0.24 ± 0.24 | 0.64 ± 0.35 | 1.56 ± 2.40 | 6.31 ± 0.86 | 35.48 ± 2.39 | 1.78 ± 1.87 | Avg % ID/gm, Kidney: 4.97 ± 0.61 % ID/gm; Avg % ID/gm, Liver: 1.65 ± 0.29 % ID/gm; Avg % ID/gm, Lung: 0.73 ± 0.81 % ID/gm
6 | CSCC[C@H](NC(=O)[C@H](CC(C)C)NC(=O)[C@H](Cc1cnc[nH]1)NC(=O)CNC(=O)[C@@H](NC(=O)[C@H](C)NC(=O)[C@H](Cc1c[nH]c2ccccc12)NC(=O)[C@H](CCC(N)=O)NC(=O)CCNC(=O)CN1CCN(CC(=O)O)CCN(CC(=O)O)CCN(CC(=O)O)CC1)C(C)C)C(N)=O [111In-DOTA-β-Ala-BBN[7-14]NH2, metal not drawn] |  |  |  |  |  |  |  |  |  |  |  |  |  |  |  |  |  |  |  |  | tissue uptake dose at 1 h (Blood): 0.23 ± 0.1 %ID; tissue uptake dose at 1 h (Carcass): 2.23 ± 0.36 %ID; tissue uptake dose at 1 h (Kidney): 0.62 ± 0.1 %ID; tissue uptake dose at 1 h (Liver): 0.17 ± 0.03 %ID; tissue uptake dose at 1 h (Lung): 0.03 ± 0.02 %ID; tissue uptake dose at 1 h (Stomach): 0.13 ± 0.02 %ID; dose excreted at 1 h: 92.41 ± 0.9%; tissue uptake at 1 h (Blood): 0.11 ± 0.06 %ID/g; tissue uptake at 1 h (Kidney): 1.4 ± 0.27 %ID/g; tissue uptake at 1 h (Liver): 0.11 ± 0.02 %ID/g; tissue uptake at 1 h (Stomach): 0.3 ± 0.07 %ID/g
7 | CSCC[C@H](NC(=O)[C@H](CC(C)C)NC(=O)[C@H](Cc1c[nH]cn1)NC(=O)CNC(=O)[C@@H](NC(=O)[C@H](C)NC(=O)[C@H](Cc1c[nH]c2ccccc12)NC(=O)[C@H](CCC(N)=O)NC(=O)CCCCNC(=O)CN1CCN(CC(=O)O)CCN(CC(=O)O)CCN(CC(=O)O)CC1)C(C)C)C(N)=O [111In-DOTA-5-Ava-BBN[7-14]NH2, metal not drawn] |  |  |  |  |  |  |  |  |  |  |  |  |  |  |  |  |  |  |  |  | tissue uptake dose at 1 h (Blood): 0.45 ± 0.14 %ID; tissue uptake dose at 1 h (Kidney): 0.75 ± 0.14 %ID; tissue uptake dose at 1 h (L. Intestine): 2.74 ± 0.8 %ID; tissue uptake dose at 1 h (Pancreas): 5.57 ± 0.99 %ID; dose excreted at 1 h: 81.3 ± 1.32%; tissue uptake at 1 h (Blood): 0.2 ± 0.07 %ID/g; tissue uptake at 1 h (Kidney): 1.84 ± 0.44 %ID/g; tissue uptake at 1 h (L. Intestine): 3.07 ± 0.86 %ID/g; tissue uptake at 1 h (Pancreas): 15.8 ± 2.54 %ID/g
8 | CSCC[C@H](NC(=O)[C@H](CC(C)C)NC(=O)[C@H](Cc1cnc[nH]1)NC(=O)CNC(=O)[C@@H](NC(=O)[C@H](C)NC(=O)[C@H](Cc1c[nH]c2ccccc12)NC(=O)[C@H](CCC(N)=O)NC(=O)CCNC(=O)CN1CCN(CC(=O)O)CCN(CC(=O)O)CCN(CC(=O)O)CC1)C(C)C)C(N)=O [111In-DOTA-β-Ala-BBN[7-14]NH2] [metal not drawn] |  | 0.90 ± 0.57 | 1.57 ± 0.65 |  | 0.03 ± 0.02 | 1.01 ± 0.37 |  |  | 0.01 ± 0.01 |  |  |  | 0.01 ± 0.01 | 1.84 ± 0.35 | 0.05 ± 0.00 |  | 0.06 ± 0.04 | 1.10 ± 0.78 | 4.92 ± 0.37 | 0.37 ± 0.06 | 
